Where two headings read alike, the source gives them in different places.
Experiments:
[1] = molecular target: T1, Human ROR1 (receptor tyrosine kinase-like orphan receptor 1) (human, UniProt Q01973 30-937); assay: flow cytometry on ROR1-expressing cells; predicted plateau relative to R12 scFv = 100%
T1 construct: also called hROR1; K562/ROR1
Method: (§1) Additionally, percent (%) maximum (max) binding to ROR1-expressing cells and % max competition with the reference antibody (R12 scFv) were calculated. Percent max binding and competition values were calculated based on predicted plateaus (measured by Prism® using four parameter non-linear regression), relative to values for R12 scFv binding and inhibition, respectively, assigned as 100% in each study.

[2] = molecular target: T1, Human ROR1 (receptor tyrosine …); assay: flow cytometry competition, competitor 2 nM Myc-R12 scFv on ROR1/K562 cells (n = 1)
Method: (§2) Assays also were performed to assess competition of the clones with the reference antibody (R12 scFv), for binding to ROR1-expressing cells. VH clones were titrated against 2 nM Myc-R12 on ROR1/K562 cells and competition assessed with an anti-Myc-Alexa647 secondary antibody, and the half maximal inhibitory concentration (IC₅₀) determined for respective clones.

[3] = molecular target: T1, Human ROR1 (receptor tyrosine …); assay: flow cytometry on ROR1-expressing K562 and CHOK1 cells (n = 1)
[4] = molecular target: T1, Human ROR1 (receptor tyrosine …); assay: competition with Myc-R12 scFv on ROR1/K562 cells; predicted plateau relative to R12 scFv = 100%
Method: as §2, §1

[5] = molecular target: T1, Human ROR1 (receptor tyrosine …); assay: flow cytometry on ROR1-expressing cells; predicted plateau relative to R12 scFv = 100%; remark: listed apart in the source
Method: as §1
(§3) Assays also were performed to assess competition (measured as half maximal inhibitory concentration (IC₅₀)) of the clones with the R12 scFv reference antibody for binding to ROR1-expressing cells, as described in Example 1. Percent (%) max ROR1 and % max competition, as compared to the R12 scFv reference antibody, were determined as described in Example 1.

[6] = molecular target: T1, Human ROR1 (receptor tyrosine …); assay: competition with R12 scFv on ROR1-expressing cells; predicted plateau relative to R12 scFv = 100%
Method: as §1, §3

[7] = molecular target: T1, Human ROR1 (receptor tyrosine …); assay: flow cytometry competition, competitor R12 scFv on ROR1-expressing cells (n = 1)
Method: as §2, §3

[8] = molecular target: T1, Human ROR1 (receptor tyrosine …); assay: flow cytometry on ROR1-expressing K562 and CHOK1 cells (n = 1); remark: listed apart in the source
Mouse ROR1 = molecular target: T2, Mouse ROR1 (mouse, UniProt Q9Z139 30-937); assay: inferred from IFN-gamma release of CAR T cells on K562/mouse ROR1 cells
T2 construct: also called mROR1; K562/mouse ROR1
Method: Cytokine release was assessed following incubation of the CAR-expressing cells with either K562/human ROR1 (hROR1) or K562/mouse ROR1 (mROR1) antigen-expressing cells. Transduced CD8+ T cells were co-cultured with antigen-expressing cells at a single effector to target (E:T). The co-cultured cells were incubated for about 24 hours, and then supernatants were collected for measurement of IFN-γ using a cytokine immunoassay.

T1 sequence (Q01973 30-937): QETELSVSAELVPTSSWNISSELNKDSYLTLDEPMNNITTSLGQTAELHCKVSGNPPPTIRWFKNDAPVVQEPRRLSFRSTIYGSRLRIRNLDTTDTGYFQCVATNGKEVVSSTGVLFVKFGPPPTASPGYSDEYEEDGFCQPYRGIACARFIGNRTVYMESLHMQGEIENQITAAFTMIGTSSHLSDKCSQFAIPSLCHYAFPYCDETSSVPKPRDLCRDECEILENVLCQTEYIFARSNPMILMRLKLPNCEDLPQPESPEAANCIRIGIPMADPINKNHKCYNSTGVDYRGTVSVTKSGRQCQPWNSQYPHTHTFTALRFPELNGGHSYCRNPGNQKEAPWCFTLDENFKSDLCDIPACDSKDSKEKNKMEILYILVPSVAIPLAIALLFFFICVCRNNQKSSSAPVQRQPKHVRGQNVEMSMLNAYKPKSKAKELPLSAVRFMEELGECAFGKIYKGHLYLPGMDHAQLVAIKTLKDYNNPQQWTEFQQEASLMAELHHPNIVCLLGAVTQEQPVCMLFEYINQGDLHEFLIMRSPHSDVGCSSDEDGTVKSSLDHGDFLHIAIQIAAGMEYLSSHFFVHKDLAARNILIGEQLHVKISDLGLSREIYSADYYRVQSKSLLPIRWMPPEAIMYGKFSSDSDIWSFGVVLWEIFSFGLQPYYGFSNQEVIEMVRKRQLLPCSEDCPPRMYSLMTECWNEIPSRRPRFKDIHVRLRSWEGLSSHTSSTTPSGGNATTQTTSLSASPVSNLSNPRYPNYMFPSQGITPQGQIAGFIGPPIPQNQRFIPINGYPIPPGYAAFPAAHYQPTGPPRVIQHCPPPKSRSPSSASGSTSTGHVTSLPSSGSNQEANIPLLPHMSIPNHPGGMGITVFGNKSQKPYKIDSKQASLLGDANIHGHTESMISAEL
T2 sequence (Q9Z139 30-937): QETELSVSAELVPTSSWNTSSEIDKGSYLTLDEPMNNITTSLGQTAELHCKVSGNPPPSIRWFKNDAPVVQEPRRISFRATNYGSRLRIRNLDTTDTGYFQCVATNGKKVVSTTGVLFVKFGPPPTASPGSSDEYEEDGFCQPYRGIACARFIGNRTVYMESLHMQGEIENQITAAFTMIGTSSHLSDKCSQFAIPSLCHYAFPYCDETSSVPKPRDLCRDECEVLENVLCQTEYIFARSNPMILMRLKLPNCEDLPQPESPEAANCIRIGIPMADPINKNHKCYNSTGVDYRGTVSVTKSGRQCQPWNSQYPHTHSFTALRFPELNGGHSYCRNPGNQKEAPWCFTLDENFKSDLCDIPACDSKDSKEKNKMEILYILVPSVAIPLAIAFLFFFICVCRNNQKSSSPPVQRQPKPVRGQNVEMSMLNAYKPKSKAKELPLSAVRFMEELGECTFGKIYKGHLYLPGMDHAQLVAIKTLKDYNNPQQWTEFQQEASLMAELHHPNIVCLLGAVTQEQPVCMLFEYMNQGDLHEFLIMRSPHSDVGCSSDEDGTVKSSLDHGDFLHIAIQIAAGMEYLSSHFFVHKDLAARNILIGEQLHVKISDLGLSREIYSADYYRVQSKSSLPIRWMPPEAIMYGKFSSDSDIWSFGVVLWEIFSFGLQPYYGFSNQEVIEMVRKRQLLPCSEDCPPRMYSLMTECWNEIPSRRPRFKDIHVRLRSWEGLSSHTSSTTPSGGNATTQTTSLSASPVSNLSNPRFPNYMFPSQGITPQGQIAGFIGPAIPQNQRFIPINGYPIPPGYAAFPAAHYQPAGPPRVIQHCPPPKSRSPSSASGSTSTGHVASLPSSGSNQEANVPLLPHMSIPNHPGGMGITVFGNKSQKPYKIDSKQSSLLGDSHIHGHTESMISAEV

Row | Binder | % Max Binding [1] | IC50 [2] | EC50 [3] | % Max Competition [4] | % Max Binding [5] | % Max Competition [6] | IC50 [7] | EC50 [8] | binding result (Mouse ROR1)
1 | Clone V420 (VHH, human VH-only single-domain antibody, no VL) VHH: QVQLVESGGGLVQPGGSLRLSCAASGFTFSSYWMSWVRQAPGKGLEWVANIKQDGSEKYYVDSVKGRFTISRDNAKNSLYLQMNSLRAEDTAVYYCARVNGGEYYFDYWGQGTLVTVSS | 74% | 71.5 nM | 8 nM | 58% |  |  |  |  | 
2 | Clone 350 scFv (scFv) scFv: EVQLVESGGGLVQPGRSLRLSCTASGFTFGDYAMSWVRQAPGKGLEWVSSISGSGRSTDHADYVKGRFTISRDNSKNTVYLQMNRLRAEDTAVYYCAKVSNYEYYFDYWAQGTLVTVSSQPVLTQPHSVSESPGKTVTISCTRSSGSIASNYVQWYQQRPGSAPTTVIYEDNQRPSGVPDRFSGSIDSSSNSASLTISGLKTEDEADYYCQSYDSSNHVFGTGTKLTVL |  |  |  |  | 137% | 80% | 49.1 nM | 22.9 nM | 
3 | Clone 305 scFv (scFv) scFv: EVQLVESGGGLVQPGRSLRLSCTASGFTFGDYAMSWVRQAPGKGLEWVSSISGSGRSTDHADYVKGRFTISRDNSKNTVYLQMNRLRAEDTAVYYCAKVSNYEYYFDYWAQGTLVTVSSQSVLTQPPSVSVAPGQTARITCGGNNIGSTSVHWFQQKPGQAPVLVVYDDSDRPSGIPERFSGSNSGNTATLTISRVEAGDEADYYCQVWDNDSDHRVFGGGTKLTVL |  |  |  |  | 86% | 97% | 62.5 nM | 5.1 nM | 
4 | Clone 366 scFv (scFv, Printed without a linker) scFv: EVQLVESGGGLVQPGRSLRLSCTASGFTFGDYAMSWVRQAPGKGLEWVSSISGSGRSTDHADYVKGRFTISRDNSKNTVYLQMNRLRAEDTAVYYCAKVSNYEYYFDYWAQGTLVTVSSQSVLTQPPSVPGTPGQRVTITCSGSRFNIGSNTVNWYQQLPGTAPKLLIYSNNQRPSGVPDRFSGSKSGTSASLAISGLQSEDEADYYCAAWDDSLNGYVFGTGTKLTVL |  |  |  |  | 104% | 71% | 53.9 nM | 10 nM | 
5 | Clone V163 (VHH, human VH-only single-domain antibody, no VL) VHH: QVQLVESGGGLVKPGGSLRLSCAASGFTFSNAWMSWVRQAPGKGLEWVGRIKSKTDGGTTDYAAPVKGRFTISRDDSKNTLYLQMNSLKTEDTAVYYCARQGDSSSWYVEVYYFDYWGQGTLVTVSS | 122% | 154 nM | 92.9 nM | 58% |  |  |  |  | 
6 | Clone 298 scFv (scFv) scFv: EVQLVESGGGLVQPGRSLRLSCTASGFTFGDYAMSWVRQAPGKGLEWVSSISGSGRSTDHADYVKGRFTISRDNSKNTVYLQMNRLRAEDTAVYYCAKVSNYEYYFDYWAQGTLVTVSSGGGGSGGGGSGGGGSEIVLTQSPSVSVAPGQTARITCGGSNIGSESVNWYQWKSGQVPVLVVSDTTDRPSGIPGRFTGTRSGTTATLTISGVEAGDEADYHCQVWDDTGDHPVFGGGTKLTVL |  |  |  |  | 96% | 88% | 41.3 nM | 5.9 nM | 
7 | Clone V128 (VHH, human VH-only single-domain antibody, no VL) VHH: EVQLLESGGGVVQPGGSLRLSCAASGFTFDTFWMSWVRQAPGKGLEWVGRIKSKTDGGTTDYAAPVKGRFTISRDDSKNTLYLQMNSLKTEDTAVYYCARDFGRWSYYFDYWSQGTLVTVSS |  | > 200 nM |  |  |  |  |  |  | 
8 | Clone 83B scFv (scFv, De-glycosylation variant of clone 83 (S to N at VH position 53, Kabat)) scFv: QVQLVQSGAEVKKPGASVKVSCKASGYTFTSYYMHWVRQAPGQGLEWMGIINPNGGSTSYAQKFQGRVTMTRDTSTSTVYMELSSLRSEDTAVYYCARDSSYDAFDIWGQGTMVTVSSGGGGSGGGGSGGGGSAIQLTQSPSTLSASVGDRVTITCQASQDISNYLNWYQQKPGKAPKLLINDASYLETGVPSRFSGSGSGTDFTLTISSLQPEDIATYYCQQYESLPYTFGQGTKLEIK |  |  |  |  | 140% | 103% | 15 nM | 6.4 nM | 

Now from value to binder:

Row | % Max Binding [1] | IC50 [2] | EC50 [3] | % Max Competition [4] | % Max Binding [5] | % Max Competition [6] | IC50 [7] | EC50 [8] | binding result (Mouse ROR1) | Binder
9 | 64% | 94.3 nM | 13.1 nM | 48% |  |  |  |  |  | Clone V282 (VHH, human VH-only single-domain antibody, no VL) VHH: EVQLVESGGGLVQPGGSLRLSCAASGFTFSSYWMSWVRQAPGKGLEWVANIKQDGSEKYYVDSVKGRFTISRDNAKNSLYLQMNSLRAEDTAVYYCARVRGSEYYFDYWGQGTLVTVSS
10 | 29% | 5.6 nM | 23.7 nM | 19% |  |  |  |  |  | Clone V312 (VHH, human VH-only single-domain antibody, no VL) VHH: EVQLVESGGGLVKPRGSLRLSCAASGFTFSNAWMSWVRQAPGKGLEWVGRIKSKTDGGTTDYAAPVKGRFTISRDDSKNTLYLQMNSLKTEDTAVYYCARTSRGRFLEWLLFDYWGQGTLVTVSS
11 |  | > 200 nM |  | 76% |  |  |  |  |  | Clone V181 (VHH, human VH-only single-domain antibody, no VL) VHH: QITLKESGGGLVKPGRSLRLSCTASGFTFGDYAMSWFRQAPGKGLEWVGFIRSKAYGGTTEYAASVKGRFTISRDDSKSIAYLQMNSLKTEDTAVYYCAKDFEVREAHLSYFDYWGQGTLVTVSS
12 | 18% | 25.2 nM | 49.7 nM | 18% |  |  |  |  |  | Clone V397 (VHH, human VH-only single-domain antibody, no VL) VHH: QITLKESGGGLVQPGGSLRLSCAASGFTFSNAWMSWVRQAPGKGLEWVGRIKSKTDGGTTDYAAPLKGRFTISRDDSKNTLYLQMNSLKTEDTAVYYCARAKGLWFGESYYFDYWGQGTLVTVSS
13 |  |  |  |  |  |  |  |  | binds | CAR containing Clone 298 scFv (VH-VL) (other, Chimeric antigen receptor expressed on primary human CD8+ T cells; tEGFR marker is split off by T2A; also called 298 CAR; not shown: Ig-derived hinge only spacer, human CD28-derived transmembrane domain, human 4-1BB-derived intracellular signaling domai) EVQLVESGGGLVQPGRSLRLSCTASGFTFGDYAMSWVRQAPGKGLEWVSSISGSGRSTDHADYVKGRFTISRDNSKNTVYLQMNRLRAEDTAVYYCAKVSNYEYYFDYWAQGTLVTVSSGGGGSGGGGSGGGGSEIVLTQSPSVSVAPGQTARITCGGSNIGSESVNWYQWKSGQVPVLVVSDTTDRPSGIPGRFTGTRSGTTATLTISGVEAGDEADYHCQVWDDTGDHPVFGGGTKLTVL
14 | 70% | 32.4 nM | 18.8 nM | 31% |  |  |  |  |  | Clone V331 (VHH, human VH-only single-domain antibody, no VL) VHH: QVQLQQWGAGLLKPSETLSLTCAVYGGSFSGYYWSWIRQPPGKGLEWIGKINHSGSTNYNPSLKSRVTISVDTSKNQFSLKLSSVTAADTAVYYCARGQIAAHVWGWFDPWGQGTLVTVSS
15 | 22% |  | 31.5 nM |  |  |  |  |  |  | Clone V278 (VHH, human VH-only single-domain antibody, no VL) VHH: QITLKESGGGLVQPGGSLRLSCAASGFTFSSYAMSWVRQAPGKGLEWVSAISGSGGSTYYADSVKGRFTISRDNSKNTLYLQMNSLRAEDTAVYYCAKERSRWGDNWFDPWGQGTLVTVSS
16 |  |  |  |  |  |  |  |  | binds | CAR containing Clone 83B scFv (VH-VL) (other, Chimeric antigen receptor expressed on primary human CD8+ T cells; tEGFR marker is split off by T2A; also called 83B CAR; not shown: Ig-derived hinge only spacer, human CD28-derived transmembrane domain, human 4-1BB-derived intracellular signaling domai) QVQLVQSGAEVKKPGASVKVSCKASGYTFTSYYMHWVRQAPGQGLEWMGIINPNGGSTSYAQKFQGRVTMTRDTSTSTVYMELSSLRSEDTAVYYCARDSSYDAFDIWGQGTMVTVSSGGGGSGGGGSGGGGSAIQLTQSPSTLSASVGDRVTITCQASQDISNYLNWYQQKPGKAPKLLINDASYLETGVPSRFSGSGSGTDFTLTISSLQPEDIATYYCQQYESLPYTFGQGTKLEIK

From US20160208018A1 (JUNO THERAPEUTICS, published 2016)
